The results in this text go back to patent publication US20050249738A1.

This test addresses CD22 on human B cells (human) (UniProt P20273). Put plainly: cell-based or functional assay.
Sequence of UniProt P20273 (P20273 20-847): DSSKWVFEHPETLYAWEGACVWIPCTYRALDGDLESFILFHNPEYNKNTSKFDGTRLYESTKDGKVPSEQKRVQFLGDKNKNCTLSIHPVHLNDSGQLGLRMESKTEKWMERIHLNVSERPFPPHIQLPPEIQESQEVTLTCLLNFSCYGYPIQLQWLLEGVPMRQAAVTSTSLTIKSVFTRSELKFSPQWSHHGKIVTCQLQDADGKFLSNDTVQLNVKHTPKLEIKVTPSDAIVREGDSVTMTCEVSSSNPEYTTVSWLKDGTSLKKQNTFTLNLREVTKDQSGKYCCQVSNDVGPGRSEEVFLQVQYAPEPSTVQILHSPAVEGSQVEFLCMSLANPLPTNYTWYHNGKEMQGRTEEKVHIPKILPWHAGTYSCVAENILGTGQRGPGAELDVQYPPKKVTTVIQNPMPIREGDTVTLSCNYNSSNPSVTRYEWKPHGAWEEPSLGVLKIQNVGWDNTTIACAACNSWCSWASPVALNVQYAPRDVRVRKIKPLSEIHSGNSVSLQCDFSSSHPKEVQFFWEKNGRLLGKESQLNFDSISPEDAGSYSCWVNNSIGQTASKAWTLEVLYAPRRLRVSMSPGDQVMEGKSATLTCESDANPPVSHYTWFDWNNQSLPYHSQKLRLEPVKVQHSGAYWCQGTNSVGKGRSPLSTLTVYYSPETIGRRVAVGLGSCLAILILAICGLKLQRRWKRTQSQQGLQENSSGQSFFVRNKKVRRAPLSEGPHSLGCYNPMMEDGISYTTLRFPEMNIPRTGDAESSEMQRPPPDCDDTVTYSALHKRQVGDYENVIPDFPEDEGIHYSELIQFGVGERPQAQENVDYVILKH

For the substance LL2-ONCONASE® immunotoxin, the IC50 of protein synthesis inhibition, CA 46 cells, 24 h worked out at 0.8 nM; the IC50 of protein synthesis inhibition, Daudi cells, 24 h turned out to be 0.1 nM; the IC50 of protein synthesis inhibition, Raji cells, 24 h is 0.8 nM.
